Test results from patent US20060079445A1, “CaMKII/calcium channel binding-related compositions and methods” (priority 2004, published 2006).

Columns and labels:
[1] = target: T1, autophosphorylated α-CaMKII / α1C amino acids 1581-1690 (Rattus norvegicus, UniProt P11275); assay: GST pull down of autophosphorylated α-CaMKII with α1C aa 1581-1690, peptide competition; format: binding; settings: 40 μM peptide; 20 nM α-CaMKII
T1 construct: made in house; GST fusion proteins from bacterial lysates
Protocol: (B) Immunoblot with CBα2 after GST pull down of purified autophosphorylated α-CaMKII (20 nM), using α1C amino acids 1581-1690 fused to GST. Pull down assay performed in the presence of 40 μM of the indicated peptide or the peptide diluent DMSO. (C) Immunoblots with CBα2 or an anti-CaM antibody after a GST pull down assay, using α1C amino acids 1581-1690 (WT), a ^1644TVGKFY^1649→EEDAAA mutant (Mut6), or GST alone, of purified autophosphorylated CaMKII (left) or CaM (right). Top panels show a Ponceau stain of each fusion protein. […] Asterisk indicates p<0.001 for a one-way analysis of variance followed by a Dunnett's test to identify specific pair-wise differences between the means for Mut6 vs. wt and GST vs. wt, n=4-8. […] Top panels show a Ponceau stain of each fusion protein.
The binding reactions were accomplished in Tris binding buffer (50 mM Tris, 150 mM NaCl, 0.1% T-20 at pH 7.4 ml plus 0.1% BSA) containing 20 nM purified CaMKII. The total protein from the HEK293 cell lysates added to each binding reaction ranged from 9-22 μg, determined by normalizing for the amount of CaMKII activity (Singla et al., 2001). Pre-autophosphorylayion of CaMKII (purified and lysate) was accomplished at 4° C. for 5 min in Tris binding buffer plus 1 mM CaCl2, 5 μM CaM, 1 mM ATP, and 5 mM MgCl2 to restrict the sites of autophosphorylation to primarily Thr286 (Ikeda et al., 1991; Lai et al., 1987; Lou and Schulman, 1989). Final concentration of these components in the binding reaction (1:40) was 0.025 mM CaCl2, 0.125 μM CaM, 0.025 mM ATP, and 0.125 MM MgCl2. The binding reaction was rocked for 1 h at 4° C. and the beads extensively washed in Tris binding buffer (2-3× for 5 mins each). Immunoblots were performed multiple times with identical results and Ponceau staining was always performed to ensure equal loading and transfer. CaMKII binding was quantified using densiotometric measurement of band intensity using KODAK 1D Image Analysis Software (Eastman Kodak, Company). […]

[2] = target: T2, cloned L-type channels (subunit α1C77) (Homo sapiens, UniProt Q13936); assay: Check for use-dependence of diltiazem block of cloned L-type channels; format: cell-based; settings: 100 μM; same solutions and voltage protocol as granule cells
T2 construct: expressed in transfected cells; host or cells: HEK293 stably transfected with α2-δ and β1C (HEKα2β1), transiently transfected with α1C77 and GFP
Protocol: Dissociated cerebellar granule cells were prepared from 7-day old C57/BL6 mouse cerebella and grown in culture by a published protocol (Piedras-Renteria and Tsien, 1998; Randall and Tsien, 1995). The cerebellar granule cells were maintained in Minimal Essential Medium (Invitrogen) supplemented with 10% fetal bovine serum, glucose 5 mg/liter, transferrin 100 mg/liter, insulin 25 mg/liter, glutamine 300 mg/liter, and potassium chloride 20 mM. Cells were plated on Matrigel (Collaborative Biomedical Product) treated glass coverslips in 24-well chambers and maintained in a humidified, 37° C. incubator with […]/5% CO2. Cells were maintained for 6 to 9 days in culture prior to electrophysiological experiments. HEK293 cells stably transfected with the α2-δ and β1C subunits (HEKα2β1) were grown in Dulbecco's Modified Eagle's Medium containing 10% v/v calf serum, penicillin (100 units/ml), streptomycin (100 μg/ml), and kept under positive selection with Geneticin (400 μg/ml) while being maintained as described above. cDNAs encoding the α1C77 subunit (Zühlke and Reuter, 1998) and the green fluorescent protein were transiently transfected into HEKα2β1 cells by using the Lipofectamine2000 reagent (Invitrogen). Electrophysiological experiments were performed >24 hrs after transfection.

[3] = system: L-type Ca^2+ currents in cerebellar granule cells; assay: Patch-clamp of Ca2+-dependent facilitation of L-type currents in cerebellar granule cells; format: cell-based, C57/BL6 mouse; settings: 2 μM peptide in patch pipette; Ca^2+ charge carrier; train of five pulses; without peptide facilitation ~50%
Protocol: Dissociated cerebellar granule cells were prepared from 7-day old C57/BL6 mouse cerebella and grown in culture by a published protocol (Piedras-Renteria and Tsien, 1998; Randall and Tsien, 1995). The cerebellar granule cells were maintained in Minimal Essential Medium (Invitrogen) supplemented with 10% fetal bovine serum, glucose 5 mg/liter, transferrin 100 mg/liter, insulin 25 mg/liter, glutamine 300 mg/liter, and potassium chloride 20 mM. Cells were plated on Matrigel (Collaborative Biomedical Product) treated glass coverslips in 24-well chambers and maintained in a humidified, 37° C. incubator with […]/5% CO2. Cells were maintained for 6 to 9 days in culture prior to electrophysiological experiments. […]
Cerebellar granule cells, identified on the basis of morphology and size, comprised >90% of the cells in the primary culture. […] Voltage-gated Ca^2+ and Ba^2+ currents were recorded from cells depolarized to 0 mV with five 20 ms pulses (50 ms interpulse interval) from a −90 mV holding potential. […]

T2 sequence (Q13936 1-2138 isoform Q13936-20): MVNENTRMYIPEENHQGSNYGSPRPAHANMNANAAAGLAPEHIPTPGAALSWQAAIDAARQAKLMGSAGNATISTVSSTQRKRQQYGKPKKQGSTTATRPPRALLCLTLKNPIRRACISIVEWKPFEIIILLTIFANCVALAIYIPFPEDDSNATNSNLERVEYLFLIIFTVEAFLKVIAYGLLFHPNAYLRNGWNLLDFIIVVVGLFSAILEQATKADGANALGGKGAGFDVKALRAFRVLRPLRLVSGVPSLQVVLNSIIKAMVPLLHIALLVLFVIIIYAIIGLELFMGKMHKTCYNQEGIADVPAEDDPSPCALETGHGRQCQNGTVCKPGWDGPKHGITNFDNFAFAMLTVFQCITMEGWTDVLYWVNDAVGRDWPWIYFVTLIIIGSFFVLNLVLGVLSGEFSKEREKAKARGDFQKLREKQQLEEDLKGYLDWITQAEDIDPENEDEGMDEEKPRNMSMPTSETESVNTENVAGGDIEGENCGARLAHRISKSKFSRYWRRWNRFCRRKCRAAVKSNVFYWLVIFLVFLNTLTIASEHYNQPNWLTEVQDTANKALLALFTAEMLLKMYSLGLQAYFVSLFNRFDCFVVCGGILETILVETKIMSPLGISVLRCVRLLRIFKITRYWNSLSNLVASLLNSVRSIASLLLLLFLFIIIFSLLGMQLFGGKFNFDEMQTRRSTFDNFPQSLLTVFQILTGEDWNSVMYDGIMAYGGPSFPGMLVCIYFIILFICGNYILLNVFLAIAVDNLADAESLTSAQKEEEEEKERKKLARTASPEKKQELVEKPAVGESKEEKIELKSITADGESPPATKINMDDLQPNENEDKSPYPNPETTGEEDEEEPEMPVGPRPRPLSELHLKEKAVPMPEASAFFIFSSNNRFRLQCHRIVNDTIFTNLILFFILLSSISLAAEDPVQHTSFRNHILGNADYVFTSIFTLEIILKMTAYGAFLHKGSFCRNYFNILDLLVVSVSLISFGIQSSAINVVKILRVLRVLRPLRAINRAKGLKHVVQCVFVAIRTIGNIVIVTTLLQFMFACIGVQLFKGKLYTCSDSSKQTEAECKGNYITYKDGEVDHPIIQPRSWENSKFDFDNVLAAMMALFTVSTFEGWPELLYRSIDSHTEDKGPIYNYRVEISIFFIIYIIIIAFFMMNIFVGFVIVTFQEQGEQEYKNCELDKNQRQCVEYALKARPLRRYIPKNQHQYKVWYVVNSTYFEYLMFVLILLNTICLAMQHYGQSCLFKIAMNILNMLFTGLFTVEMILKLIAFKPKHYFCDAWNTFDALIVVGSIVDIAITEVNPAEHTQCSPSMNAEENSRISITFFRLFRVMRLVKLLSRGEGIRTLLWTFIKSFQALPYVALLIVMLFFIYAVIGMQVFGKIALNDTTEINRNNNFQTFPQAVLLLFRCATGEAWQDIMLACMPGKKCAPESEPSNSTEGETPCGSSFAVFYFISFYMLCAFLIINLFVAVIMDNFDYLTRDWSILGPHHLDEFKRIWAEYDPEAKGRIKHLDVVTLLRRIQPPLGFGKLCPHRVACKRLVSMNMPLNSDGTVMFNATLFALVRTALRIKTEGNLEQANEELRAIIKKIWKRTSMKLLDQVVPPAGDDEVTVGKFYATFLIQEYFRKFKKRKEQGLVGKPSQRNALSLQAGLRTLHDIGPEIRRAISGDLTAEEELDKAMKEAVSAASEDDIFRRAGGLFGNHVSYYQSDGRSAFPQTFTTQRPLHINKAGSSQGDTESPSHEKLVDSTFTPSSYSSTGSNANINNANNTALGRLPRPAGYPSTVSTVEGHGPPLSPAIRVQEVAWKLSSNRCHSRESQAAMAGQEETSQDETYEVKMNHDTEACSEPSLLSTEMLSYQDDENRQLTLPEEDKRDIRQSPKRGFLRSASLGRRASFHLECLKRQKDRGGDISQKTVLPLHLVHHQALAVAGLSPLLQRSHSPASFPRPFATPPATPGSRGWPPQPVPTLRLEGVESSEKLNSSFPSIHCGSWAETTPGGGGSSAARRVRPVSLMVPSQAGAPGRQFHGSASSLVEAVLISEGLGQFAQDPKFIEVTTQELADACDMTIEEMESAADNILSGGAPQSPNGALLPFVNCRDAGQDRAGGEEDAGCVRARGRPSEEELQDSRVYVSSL
T2 sequence (Q02641 whole entry partner): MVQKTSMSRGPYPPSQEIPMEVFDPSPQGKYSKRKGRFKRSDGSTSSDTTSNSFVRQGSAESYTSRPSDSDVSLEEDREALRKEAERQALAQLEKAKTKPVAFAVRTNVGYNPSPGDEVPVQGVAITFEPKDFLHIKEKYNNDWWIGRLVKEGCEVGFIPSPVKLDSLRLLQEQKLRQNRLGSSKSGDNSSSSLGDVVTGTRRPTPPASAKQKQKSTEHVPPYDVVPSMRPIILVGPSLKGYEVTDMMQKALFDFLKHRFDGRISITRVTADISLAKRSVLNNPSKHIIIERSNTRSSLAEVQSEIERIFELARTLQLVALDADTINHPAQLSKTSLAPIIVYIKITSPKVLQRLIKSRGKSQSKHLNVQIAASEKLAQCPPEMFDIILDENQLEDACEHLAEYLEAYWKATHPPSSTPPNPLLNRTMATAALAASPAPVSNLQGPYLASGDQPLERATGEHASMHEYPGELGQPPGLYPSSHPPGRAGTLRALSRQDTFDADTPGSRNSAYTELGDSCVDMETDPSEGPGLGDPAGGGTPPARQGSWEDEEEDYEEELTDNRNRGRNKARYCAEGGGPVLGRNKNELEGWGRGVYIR
T2 sequence (P54289 25-946 partner limits assumed): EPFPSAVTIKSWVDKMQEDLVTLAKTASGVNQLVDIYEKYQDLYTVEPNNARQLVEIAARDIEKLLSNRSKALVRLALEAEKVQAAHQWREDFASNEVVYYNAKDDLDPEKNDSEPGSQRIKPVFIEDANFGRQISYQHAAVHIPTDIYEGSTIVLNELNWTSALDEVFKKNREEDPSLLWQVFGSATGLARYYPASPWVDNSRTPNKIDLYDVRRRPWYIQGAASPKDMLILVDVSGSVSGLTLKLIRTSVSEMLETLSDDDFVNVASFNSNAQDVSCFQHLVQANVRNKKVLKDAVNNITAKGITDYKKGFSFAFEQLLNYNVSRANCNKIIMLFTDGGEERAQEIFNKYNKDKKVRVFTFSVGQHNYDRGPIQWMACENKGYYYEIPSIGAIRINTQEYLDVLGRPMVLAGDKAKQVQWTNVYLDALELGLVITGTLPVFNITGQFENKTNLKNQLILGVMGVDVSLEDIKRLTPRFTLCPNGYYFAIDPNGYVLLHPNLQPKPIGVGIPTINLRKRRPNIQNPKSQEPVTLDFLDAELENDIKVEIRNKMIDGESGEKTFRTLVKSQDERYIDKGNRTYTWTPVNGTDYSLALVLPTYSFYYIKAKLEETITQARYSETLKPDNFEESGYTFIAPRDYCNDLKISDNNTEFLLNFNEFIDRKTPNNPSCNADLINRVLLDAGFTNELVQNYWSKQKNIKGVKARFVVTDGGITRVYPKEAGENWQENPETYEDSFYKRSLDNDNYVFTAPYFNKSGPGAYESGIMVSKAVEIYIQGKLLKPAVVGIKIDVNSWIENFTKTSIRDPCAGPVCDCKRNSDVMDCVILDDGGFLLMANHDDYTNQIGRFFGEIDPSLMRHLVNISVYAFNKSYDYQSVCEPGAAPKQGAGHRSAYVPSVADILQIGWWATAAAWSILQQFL
T2 sequence (P54289 947-1103 partner limits assumed): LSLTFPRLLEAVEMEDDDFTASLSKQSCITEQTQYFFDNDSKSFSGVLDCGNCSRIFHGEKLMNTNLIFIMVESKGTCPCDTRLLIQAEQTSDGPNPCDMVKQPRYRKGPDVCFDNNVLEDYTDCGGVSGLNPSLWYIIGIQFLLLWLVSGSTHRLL

Compound: 1589-1610: ~22 aa peptide of α1C residues 1589-1610, site important for tethering of apoCaM (KRLVSMNMPLNSDGTVMFNATL; UniProt Q13936 1589-1610, looked up, fragment)
- interaction of autophosphorylated CaMKII with the 1581-1690 fusion protein [1]: not inhibited

Compound: 1615-1636: ~22 aa peptide of α1C residues 1615-1636, site important for tethering of apoCaM (RTALRIKTEGNLEQANEELRAI; UniProt Q13936 1615-1636, looked up, fragment)
- interaction of autophosphorylated CaMKII with the 1581-1690 fusion protein [1]: not inhibited

Compound: 1639-1660: ~22 aa peptide generated from α1C residues 1639-1660, contains TVGKFY (KIWKRTSMKLLDQVVPPAGDDE; UniProt Q13936 1639-1660, looked up, fragment)
- interaction of autophosphorylated CaMKII with the 1581-1690 fusion protein [1]: dramatically reduced

Compound: COc1ccc([C@@H]2Sc3ccccc3N(CCN(C)C)C(=O)[C@@H]2OC(C)=O)cc1 [diltiazem]
- use-dependence of block of calcium currents [2]: none were found

Compound: KKALRRQEAVDAL [autocamtide-2-related inhibitory peptide]
- decrease in peak L-type current over the course of the depolarizing pulse train [3]: ~25%
